Legend:
[1] = biological target: T1, soluble human FcRn (shFcRn) (human, UniProt P55899 24-297; P61769 21-119); assay: SPR 8500, hFcRn pH 7.4 (Table 11C)
T1 construct: also called soluble hFcRn; sol hFcRn

[2] = biological target: T2, human FcRn/human β2M expressed by cells (293 C11 cells) (human, UniProt P55899 24-365; P61769 21-119); assay: FACS blocking of IgG-Fc, IgG, pH 6
T2 construct: HEK 293 cells engineered to overexpress FcRn; Whole entries named; also called hFcRn (cells); hFcRn in THP-1 and Caco-2 cells
T2 sequence (P55899 24-365 limits assumed, chain 1 of 2): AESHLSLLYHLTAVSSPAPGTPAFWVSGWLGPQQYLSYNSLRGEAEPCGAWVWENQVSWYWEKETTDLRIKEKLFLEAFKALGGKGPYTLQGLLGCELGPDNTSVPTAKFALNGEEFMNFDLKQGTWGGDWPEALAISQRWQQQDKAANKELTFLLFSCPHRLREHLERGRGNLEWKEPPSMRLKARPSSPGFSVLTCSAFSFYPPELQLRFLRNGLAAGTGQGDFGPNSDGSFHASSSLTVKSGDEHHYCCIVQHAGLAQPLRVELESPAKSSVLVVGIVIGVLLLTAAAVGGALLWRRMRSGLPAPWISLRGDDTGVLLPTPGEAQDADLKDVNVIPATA
T2 sequence (P61769 21-119 limits assumed, chain 2 of 2): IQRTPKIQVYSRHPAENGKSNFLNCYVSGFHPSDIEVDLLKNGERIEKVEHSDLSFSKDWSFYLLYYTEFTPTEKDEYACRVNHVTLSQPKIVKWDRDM

soluble rat FcRn [3] = biological target: T3, soluble rat FcRn (rat, UniProt P13599 23-298; P07151 21-119, limits assumed); assay: SPR 8500, rat FcRn pH 6 (Table 11D)
T3 construct: also called sol rat FcRn
T3 sequence: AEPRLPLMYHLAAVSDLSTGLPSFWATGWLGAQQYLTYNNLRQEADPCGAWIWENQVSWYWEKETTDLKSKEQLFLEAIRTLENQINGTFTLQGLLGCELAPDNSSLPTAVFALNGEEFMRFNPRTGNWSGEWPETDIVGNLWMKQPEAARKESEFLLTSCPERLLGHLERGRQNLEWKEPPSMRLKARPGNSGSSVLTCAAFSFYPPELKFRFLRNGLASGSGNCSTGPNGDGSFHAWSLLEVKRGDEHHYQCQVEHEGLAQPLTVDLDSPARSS
T3 sequence (b2m): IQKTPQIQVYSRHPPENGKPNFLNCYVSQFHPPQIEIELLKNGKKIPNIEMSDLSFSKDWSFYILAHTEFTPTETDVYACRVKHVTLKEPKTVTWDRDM

[4] = biological target: T1, soluble human FcRn (shFcRn); assay: SPR 8500, hFcRn pH 6 (Table 12B)
[5] = biological target: T1, soluble human FcRn (shFcRn); assay: SPR 8500, hFcRn pH 6 (Table 11B)
[6] = biological target: T1, soluble human FcRn (shFcRn); assay: SPR 8500, hFcRn pH 7.4 (Table 12C)
[7] = biological target: T4, rat FcRn/rat β2M expressed on cells (rat, UniProt P13599 23-366; P07151 21-119); assay: FACS blocking of IgG-Fc, IgG, pH 6
T4 construct: Cells from Neil Simister (Brandeis); also called rat FcRn (cells); rat fibroblasts expressing rat FcRn
T4 sequence: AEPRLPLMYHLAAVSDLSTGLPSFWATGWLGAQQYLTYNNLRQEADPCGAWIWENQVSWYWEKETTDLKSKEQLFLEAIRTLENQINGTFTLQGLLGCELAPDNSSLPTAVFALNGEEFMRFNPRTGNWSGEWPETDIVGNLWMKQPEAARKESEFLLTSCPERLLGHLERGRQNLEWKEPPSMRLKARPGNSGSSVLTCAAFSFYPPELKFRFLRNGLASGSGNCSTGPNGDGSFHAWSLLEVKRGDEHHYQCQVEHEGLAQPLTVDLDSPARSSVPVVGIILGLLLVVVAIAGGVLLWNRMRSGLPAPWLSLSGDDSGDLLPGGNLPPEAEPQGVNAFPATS
T4 sequence (b2m): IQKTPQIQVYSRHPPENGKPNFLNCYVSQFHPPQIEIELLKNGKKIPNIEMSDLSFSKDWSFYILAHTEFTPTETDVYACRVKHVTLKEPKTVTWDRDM

[8] = biological target: T1, soluble human FcRn (shFcRn); assay: SPR 8500, IgG, pH 7.5
soluble rat FcRn [9] = biological target: T3, soluble rat FcRn; assay: SPR 8500, IgG, pH 7.5
soluble rat FcRn [10] = biological target: T3, soluble rat FcRn; assay: SPR 8500, rat FcRn pH 6 (Table 12D)
[11] = biological target: T1, soluble human FcRn (shFcRn); assay: Biacore, pH 7.4
[12] = biological target: T1, soluble human FcRn (shFcRn); assay: Biacore, IgG immobilized, hFcRn flowed, pH 6
[13] = biological target: T2, human FcRn/human β2M expressed by cells …; assay: FACS (blocking), IgG, hFcRn cells, pH 6
[14] = biological target: T1, soluble human FcRn (shFcRn); assay: Biacore, hFcRn immobilized, IgG flowed, pH 7.4
[15] = biological target: T1, soluble human FcRn (shFcRn); assay: Biacore, hFcRn immobilized, IgG flowed, pH 6
[16] = biological target: T1, soluble human FcRn (shFcRn); assay: Biacore, IgG immobilized, hFcRn flowed, pH 7.4
[17] = biological target: T1, soluble human FcRn (shFcRn); assay: SPR 8500, IgG, pH 6
soluble rat FcRn [18] = biological target: T3, soluble rat FcRn; assay: SPR 8500, IgG, pH 6
soluble rat FcRn [19] = biological target: T3, soluble rat FcRn; assay: SPR 8500, rat FcRn pH 7.4 (Table 12E)
[20] = biological target: T1, soluble human FcRn (shFcRn); assay: Biacore, IgG immobilized, hFcRn flowed, pH 7.4; remark: listed apart in the source

T1 sequence (P55899 24-297 limits assumed, chain 1 of 2): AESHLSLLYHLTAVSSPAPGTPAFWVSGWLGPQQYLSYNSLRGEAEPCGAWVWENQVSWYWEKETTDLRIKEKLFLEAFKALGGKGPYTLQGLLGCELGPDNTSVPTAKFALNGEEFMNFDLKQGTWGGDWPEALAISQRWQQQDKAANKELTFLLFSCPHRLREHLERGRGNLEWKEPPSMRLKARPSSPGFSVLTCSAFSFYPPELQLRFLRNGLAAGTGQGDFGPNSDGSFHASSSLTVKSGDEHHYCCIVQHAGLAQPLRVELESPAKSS
T1 sequence (P61769 21-119 limits assumed, chain 2 of 2): as the sequence (P61769 21-119 limits assumed, chain 2 of 2) above

B1: 3B3 mouse anti-human FcRn IgG (antibody)
chain 1: VKLQESGPELVKPGASVKISCKASGYAFSRSWMNWVKQRPGQGLEWIGRIHPGDGDTNYNGKFKGKATLTVAKSSSTAYMQLSSLTSVDSAVYFCANEGSPYFDYWGQGTTLTVSS
chain 2: DIQLTQSPTTVAASPGEKITITCSASSSISSNYLHWYQQKPGFSPKLLIYRTSNLASGVPARFSGSGSGTSYSLTIGTMEAEDVATYYCQQGSNIPLTFGAGTKLELKRADAAPTVSIFPPSSEQLTSGGASVVCFLNNFYPKDINVKWKIDGSERQNGVLNSWTDQDSKDSTYSMSSTLTLTKDEYERHNSYTCEATHKTSTSPIVKSFNKNE
Work on B1 yielded a Kd [1] of 0.593 nM, a koff [1] of 0.00176 s⁻¹ and a kon [1] of 2.97e+06 M⁻¹ s⁻¹. It also gave an IC50 [2] of 9.7 nM, a Kd (soluble rat FcRn [3]) of 1.5 nM and a koff (soluble rat FcRn [3]) of 0.00104 s⁻¹. It also gave a kon (soluble rat FcRn [3]) of 683000 M⁻¹ s⁻¹, a Kd [4] of 0.409 nM and a koff [4] of 0.00094 s⁻¹. It also gave a kon [4] of 2.3e+06 M⁻¹ s⁻¹, a Kd [5] of 0.34 nM and a koff [5] of 0.00131 s⁻¹. It also gave a kon [5] of 3.82e+06 M⁻¹ s⁻¹, a Kd [6] of 0.675 nM and a koff [6] of 0.0023 s⁻¹. For the same binder, the kon [6] was 3.41e+06 M⁻¹ s⁻¹.

B2: 532A-M0090-F11 IgG (antibody)
chain 1: not shown
chain 2: QSVLTQPASVSGSPGQSITISCTGTGSDVGSYNLVSWYQKYPGKAPKLIIYGDSQRPSGLSSRFSGSKSGNSASLTISGLQAEDEADYYCCSYAGSGIYVFGSGTKVTVLSQPKANPTVTLFPPSSEELQANKATLVCLISDFYPGAVTVAWKADGSPVKAGVETTKPSKQSNNKYAASSYLSLTPEQWKSHRSYSCQVTHEGSTVEKTVAPAECS
Work on B2 yielded an IC50 [2] of 2.6 nM, an IC50 [7] of 4.9 nM and a Kd [8] of 10.8 nM. It also gave a Kd (soluble rat FcRn [9]) of 9.14 nM, a Kd (soluble rat FcRn [10]) of 9.8 nM and a koff (soluble rat FcRn [10]) of 0.00117 s⁻¹. The kon (soluble rat FcRn [10]) was 119000 M⁻¹ s⁻¹, the “K off Fold improvement over DX2500” value [11] was 7 fold and the “K off Fold improvement over M90-F11” value [11] was 1 fold. The “KD Fold improvement over DX2500” value [11] was 5 fold, the “KD Fold improvement over M90-F11” value [11] was 1 fold and the Kd [4] was 2.44 nM. It also gave a koff [4] of 0.00248 s⁻¹, a kon [4] of 1.02e+06 M⁻¹ s⁻¹ and a Kd [12] of 10.3 nM. For the same binder, the koff [12] was 0.00312 s⁻¹, the kon [12] was 303000 M⁻¹ s⁻¹ and the IC50 [13] was 0.43 nM. The Kd [14] was 0.772 nM, the koff [14] was 0.000702 s⁻¹ and the kon [14] was 909000 M⁻¹ s⁻¹. For the same binder, the Kd [15] was 0.118 nM, the koff [15] was 0.000252 s⁻¹ and the kon [15] was 2.13e+06 M⁻¹ s⁻¹. For the same binder, the Kd [16] was 20.5 nM, the koff [16] was 0.00373 s⁻¹ and the kon [16] was 181000 M⁻¹ s⁻¹. The Kd [17] was 2.44 nM, the Kd (soluble rat FcRn [18]) was 9.8 nM and the Kd (soluble rat FcRn [19]) was 9.14 nM. The koff (soluble rat FcRn [19]) was 0.00114 s⁻¹, the kon (soluble rat FcRn [19]) was 125000 M⁻¹ s⁻¹ and the Kd [20] was 18.6 nM. For the same binder, the koff [20] was 0.00299 s⁻¹, the kon [20] was 161000 M⁻¹ s⁻¹ and the Kd [6] was 10.8 nM. The koff [6] was 0.00173 s⁻¹ and the kon [6] was 159000 M⁻¹ s⁻¹.

B3: DX-2500 (germlined LC & allotype HC changes) (antibody)
chain 1: not shown
chain 2: QSALTQPASVSGSPGQSITISCTGTGSDVGSYNLVSWYQQHPGKAPKLMIYGDSQRPSGVSNRFSGSKSGNTASLTISGLQAEDEADYYCCSYAGSGIYVFGTGTKVTVLGQPKANPTVTLFPPSSEELQANKATLVCLISDFYPGAVTVAWKADGSPVKAGVETTKPSKQSNNKYAASSYLSLTPEQWKSHRSYSCQVTHEGSTVEKTVAPTECS
With B3 the “K off Fold improvement over DX2500” value [11] was 1 fold, the “K off Fold improvement over M90-F11” value [11] was 0.15 fold and the “KD Fold improvement over DX2500” value [11] was 1 fold. For the same binder, the “KD Fold improvement over M90-F11” value [11] was 0.21 fold, the Kd [12] was 27.6 nM and the koff [12] was 0.0177 s⁻¹. It also gave a kon [12] of 642000 M⁻¹ s⁻¹, an IC50 [13] of 0.65 nM and a Kd [14] of 0.268 nM. It also gave a koff [14] of 0.000338 s⁻¹, a kon [14] of 1.26e+06 M⁻¹ s⁻¹ and a Kd [15] of 0.16 nM. The koff [15] was 0.000336 s⁻¹, the kon [15] was 2.11e+06 M⁻¹ s⁻¹ and the Kd [20] was 87.9 nM. The koff [20] was 0.0197 s⁻¹ and the kon [20] was 224000 M⁻¹ s⁻¹.

B4: 532A-M0090-F11 (germlined LC changes) IgG (antibody)
chain 1: not shown
chain 2: QSALTQPASVSGSPGQSITISCTGTGSDVGSYNLVSWYQQHPGKAPKLMIYGDSQRPSGVSNRFSGSKSGNTASLTISGLQAEDEADYYCCSYAGSGIYVFGTGTKVTVLGQPKANPTVTLFPPSSEELQANKATLVCLISDFYPGAVTVAWKADGSPVKAGVETTKPSKQSNNKYAASSYLSLTPEQWKSHRSYSCQVTHEGSTVEKTVAPTECS
For B4, the Kd [12] was 29.9 nM, the koff [12] was 0.0172 s⁻¹ and the kon [12] was 574000 M⁻¹ s⁻¹. It also gave an IC50 [13] of 0.38 nM, a Kd [14] of 0.779 nM and a koff [14] of 0.000776 s⁻¹. For the same binder, the kon [14] was 996000 M⁻¹ s⁻¹, the Kd [15] was 0.172 nM and the koff [15] was 0.000764 s⁻¹. For the same binder, the kon [15] was 4.45e+06 M⁻¹ s⁻¹, the Kd [16] was 35.2 nM and the koff [16] was 0.0152 s⁻¹. It also gave a kon [16] of 433000 M⁻¹ s⁻¹.
